Reference: patent US20230074436A1 (DENALI THERAPEUTICS, published 2023)
Numbering of substitutions follows the chain as printed.

B1: H1_1_LC2 (antibody, V domains shown)
VH: EVQLVESGGGLVQPGGSLRLSCAASGFTFSKAAMYWVRQAPGKGLELVSRIRTKPNNYATYHADSVKGRFTISRDNSKNTLYLQMNSLRAEDTAVYYCTADMATGDYWGQGTLVTVSS
VL: DIQMTQSPSSLSASVGDRVTITCKASQNINKNLDWYQQKPGKAPKPLIYSTNNLQTGVPSRFSGSGSGTDFTLTISSLQPEDFATYYCYQYKSAWTFGQGTKVEIK
B2: HC2_L3_8 (antibody, V domains shown)
VH: B1 VH with K31N
VL: B1 VL with Y91F, S93K
B3: H1_5_LC2 (antibody, V domains shown)
VH: B1 VH with T28K
VL: B1 VL
B4: H2_6_LC2 (antibody, V domains shown)
VH: B1 VH with K31N, N56K
VL: B1 VL
B5: HC2_L1_1 (antibody, V domains shown)
VH: B1 VH with K31N
VL: B1 VL with K31N, Q55K
B6: H2_4_LC2 (antibody, V domains shown)
VH: B1 VH with K31N, P55R
VL: B1 VL
B7: HC2_L3_6 (antibody, V domains shown)
VH: B1 VH with K31N
VL: B1 VL with S93K
B8: H3_4_LC2 (antibody, V domains shown)
VH: B1 VH with K31N, T99S, M102F, T104K
VL: B1 VL
B9: H3_3_LC2 (antibody, V domains shown)
VH: B1 VH with K31N, T99A, D101A, T104R
VL: B1 VL
B10: HC2_L3_7 (antibody, V domains shown)
VH: B1 VH with K31N
VL: B1 VL with S93N, A94G
B11: H1_3_LC2 (antibody, V domains shown)
VH: B1 VH with K31R
VL: B1 VL
B12: H3_1_LC2 (antibody, V domains shown)
VH: B1 VH with K31N, D101N
VL: B1 VL
B13: H2_2_LC2 (antibody, V domains shown)
VH: B1 VH with K31N, K54Q, P55R
VL: B1 VL
B14: H1_6_LC2 (antibody, V domains shown)
VH: B1 VH with T28N
VL: B1 VL
B15: H2_1_LC2 (antibody, V domains shown)
VH: B1 VH with K31N, Y58F
VL: B1 VL
B16: HC2_L2_2 (antibody, V domains shown)
VH: B1 VH with K31N
VL: B1 VL with S12K, A13S, S50R, N52K
B17: HC2_L3_4 (antibody, V domains shown)
VH: B1 VH with K31N
VL: B1 VL with Y91D, A94G
B18: HC2_L3_3 (antibody, V domains shown)
VH: B1 VH with K31N
VL: B1 VL with Y91D, S93K, A94G
B19: H3_6_LC2 (antibody, V domains shown)
VH: B1 VH with K31N, D101N, A103R, T104K
VL: B1 VL
B20: H3_5_LC2 (antibody, V domains shown)
VH: B1 VH with K31N, M102F, T104R
VL: B1 VL
B21: H1_4_LC2 (antibody, V domains shown)
VH: B1 VH with S30N
VL: B1 VL
B22: H3_2_LC2 (antibody, V domains shown)
VH: B1 VH with K31N, D101N, T104K
VL: B1 VL
B23: HC2_L3_2 (antibody, V domains shown)
VH: B1 VH with K31N
VL: B1 VL with Y91D, S93R, A94G
B24: HC2_L3_1 (antibody, V domains shown)
VH: B1 VH with K31N
VL: B1 VL with Y91D, S93N, A94G
B25: H2_3_LC2 (antibody, V domains shown)
VH: B1 VH with K31N, K54E, P55R
VL: B1 VL
B26: HC2_L2_1 (antibody, V domains shown)
VH: B1 VH with K31N
VL: B1 VL with N53K, Q55K
B27: HC2_L3_10 (antibody, V domains shown)
VH: B1 VH with K31N
VL: B1 VL with S93L
B28: HC2_L3_9 (antibody, V domains shown)
VH: B1 VH with K31N
VL: B1 VL with S93Y
B29: HC2_L1_2 (antibody, V domains shown)
VH: B1 VH with K31N
VL: B1 VL with N28I, K31Q, N32I
B30: HC2_L3_5 (antibody, V domains shown)
VH: B1 VH with K31N
VL: B1 VL with S93N
B31: HC2_L3_11 (antibody, V domains shown)
VH: B1 VH with K31N
VL: B1 VL with S93F
B32: H2_5_LC2 (antibody, V domains shown)
VH: B1 VH with K31N, K54E
VL: B1 VL
B33: H1_2_LC2 (antibody, V domains shown)
VH: B1 VH with T28R
VL: B1 VL
B34: HC6_LC_k3_2_v1 (antibody, V domains shown)
VH: B1 VH with K31N, N76D
VL: EIVMTQSPATLSLSPGERATLSCKASQNINKNLDWYQQKPGQAPRPLIYSTNNLKTGIPARFSGSGSGTDFTLTISSLQPEDFAVYYCYQYKSAWTFGQGTKVEIK
B35: HC5_LC_k3_3 (antibody, V domains shown)
VH: B1 VH with K31N, V48L, S49A, N76D, L81V
VL: B34 VL with K31Q
B36: HC6_LC_k3_1 (antibody, V domains shown)
VH: B1 VH with K31N, N76D
VL: B34 VL with K31N
B37: 20H4_HC5_LC_k3_1 (antibody, V domains shown)
VH: B1 VH with K31N, V48L, S49A, N76D, L81V
VL: B34 VL with K31N
B38: HC6_LC_k3_4 (antibody, V domains shown)
VH: B1 VH with K31N, N76D
VL: B34 VL with K31E
B39: HC5_LC_k3_4 (antibody, V domains shown)
VH: B1 VH with K31N, V48L, S49A, N76D, L81V
VL: B34 VL with K31E
B40: HC6_LC_k3_6 (antibody, V domains shown)
VH: B1 VH with K31N, N76D
VL: B34 VL with Q27A, N32Q
B41: HC6_LC_k3_7 (antibody, V domains shown)
VH: B1 VH with K31N, N76D
VL: B34 VL with N30S, K31N, N32Y
B42: 20H4_HC5_LC_k3_2_v2 (antibody, V domains shown)
VH: B1 VH with K31N, V48L, S49A, N76D, L81V
VL: B34 VL with K55Q
B43: HC5_LC_k3_5 (antibody, V domains shown)
VH: B1 VH with K31N, V48L, S49A, N76D, L81V
VL: B34 VL with N32Q
B44: HC6_LC_k3_5 (antibody, V domains shown)
VH: B1 VH with K31N, N76D
VL: B34 VL with N32Q
B45: HC5_LC_k3_2_v1 (antibody, V domains shown)
VH: B1 VH with K31N, V48L, S49A, N76D, L81V
VL: B34 VL
B46: HC5_LC_k3_6 (antibody, V domains shown)
VH: B1 VH with K31N, V48L, S49A, N76D, L81V
VL: B34 VL with Q27A, N32Q
B47: HC6_LC_k3_3 (antibody, V domains shown)
VH: B1 VH with K31N, N76D
VL: B34 VL with K31Q

These binders were tested against T1, human alpha-synuclein monomer (human, UniProt P37840 1-140) (assay: SPR (Biacore 8K), IgG captured on anti-human Fc, aSyn monomer injected).

Row | Kd [nM] | Binder
1 | 3.46 | B1
2 | 3.01 | B2
3 | 4.61 | B3
4 | 7.75 | B4
5 | 1.2 | B5
6 | 8.35 | B6
7 | 3.28 | B7
8 | 4.64 | B8
9 | 5.3 | B9
10 | 4.59 | B10
11 | 4.04 | B11
12 | 4.79 | B12
13 | 5.93 | B13
14 | 3.91 | B14
15 | 6.18 | B15
16 | 2.01 | B16
17 | 2.84 | B17

Row | Kd [nM] | Binder
18 | 5.28 | B18
19 | 10.3 | B19
20 | 3.84 | B20
21 | 3.55 | B21
22 | 4.92 | B22
23 | 4.52 | B23
24 | 4.2 | B24
25 | 4.76 | B25
26 | 1.78 | B26
27 | 2.93 | B27
28 | 2.98 | B28
29 | 2.45 | B29
30 | 3.24 | B30
31 | 3.4 | B31
32 | 5.5 | B32
33 | 3.53 | B33

Biological target: T1, human alpha-synuclein monomer
Assay: as above
Remark: another data set of the same source

Row | Kd [nM] | Binder
34 | 0.22 | B34
35 | 0.17 | B35
36 | 0.16 | B36
37 | 0.13 | B37
38 | 0.18 | B38
39 | 0.15 | B39
40 | 0.14 | B40
41 | 0.22 | B41
42 | 1.3 | B42
43 | 0.13 | B43
44 | 0.21 | B44
45 | 0.17 | B45
46 | 0.19 | B46
47 | 0.16 | B47
